What was measured:
[1] = biological target: mouse trkC (on E11 mouse trigeminal neurons) (mouse) (UniProt Q6VNS1); assay: cell-based or functional assay
[2] = biological target: rat trkC (on E12 rat trigeminal neurons) (rat) (UniProt Q03351); assay: cell-based or functional assay
Chain of rat trkC (on E12 rat trigeminal neurons) (rat) (Q03351 32-864): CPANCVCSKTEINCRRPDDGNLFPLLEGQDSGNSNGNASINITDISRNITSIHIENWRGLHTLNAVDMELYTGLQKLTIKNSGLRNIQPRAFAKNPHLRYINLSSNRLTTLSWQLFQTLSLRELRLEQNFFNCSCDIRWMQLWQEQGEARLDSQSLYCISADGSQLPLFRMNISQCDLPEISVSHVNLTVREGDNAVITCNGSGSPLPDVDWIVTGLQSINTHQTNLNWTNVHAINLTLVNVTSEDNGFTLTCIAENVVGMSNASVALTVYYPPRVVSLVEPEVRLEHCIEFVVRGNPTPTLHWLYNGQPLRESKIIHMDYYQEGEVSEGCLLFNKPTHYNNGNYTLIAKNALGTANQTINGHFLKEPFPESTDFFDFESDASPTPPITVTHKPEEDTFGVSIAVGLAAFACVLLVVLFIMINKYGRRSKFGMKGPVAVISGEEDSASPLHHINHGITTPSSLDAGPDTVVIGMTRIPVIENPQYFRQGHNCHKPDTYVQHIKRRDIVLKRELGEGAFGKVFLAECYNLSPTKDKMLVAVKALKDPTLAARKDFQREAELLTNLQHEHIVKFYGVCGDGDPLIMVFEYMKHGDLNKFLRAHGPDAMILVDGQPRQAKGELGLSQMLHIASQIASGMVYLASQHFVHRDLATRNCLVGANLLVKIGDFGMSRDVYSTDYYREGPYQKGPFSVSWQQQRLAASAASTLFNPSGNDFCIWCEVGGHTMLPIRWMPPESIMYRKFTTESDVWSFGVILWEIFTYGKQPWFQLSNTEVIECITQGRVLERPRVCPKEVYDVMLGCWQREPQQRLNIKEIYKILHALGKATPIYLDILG

Chain of mouse trkC (on E11 mouse trigeminal neurons) (mouse) (Q6VNS1 32-825): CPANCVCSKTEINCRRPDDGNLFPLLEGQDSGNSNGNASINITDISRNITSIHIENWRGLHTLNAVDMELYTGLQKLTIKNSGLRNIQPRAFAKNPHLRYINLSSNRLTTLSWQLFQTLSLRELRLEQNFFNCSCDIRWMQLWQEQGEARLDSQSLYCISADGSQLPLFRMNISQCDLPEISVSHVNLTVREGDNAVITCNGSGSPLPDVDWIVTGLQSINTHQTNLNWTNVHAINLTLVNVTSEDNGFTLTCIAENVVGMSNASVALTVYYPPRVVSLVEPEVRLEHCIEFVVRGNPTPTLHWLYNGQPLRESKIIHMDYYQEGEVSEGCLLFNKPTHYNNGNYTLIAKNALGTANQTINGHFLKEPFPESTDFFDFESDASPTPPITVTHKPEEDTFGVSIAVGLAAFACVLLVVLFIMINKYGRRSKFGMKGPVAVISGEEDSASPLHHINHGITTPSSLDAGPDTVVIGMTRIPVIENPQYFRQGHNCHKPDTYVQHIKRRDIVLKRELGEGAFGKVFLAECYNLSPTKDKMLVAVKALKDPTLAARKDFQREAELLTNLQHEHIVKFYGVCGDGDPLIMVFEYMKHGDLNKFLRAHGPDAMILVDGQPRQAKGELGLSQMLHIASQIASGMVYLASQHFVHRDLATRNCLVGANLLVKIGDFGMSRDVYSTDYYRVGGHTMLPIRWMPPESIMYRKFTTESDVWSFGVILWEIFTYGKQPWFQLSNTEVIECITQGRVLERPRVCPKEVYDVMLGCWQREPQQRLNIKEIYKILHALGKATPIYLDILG

neurotrophin-3 (NT-3) (ligand)
survival of trigeminal neurons after 24 hours in culture [1]: 0.08 ng/mL
survival of trigeminal neurons after 24 hours in culture [2]: 0.08 ng/mL
